# Source: patent US20240101708A1 (Genentech, published 2024)
# Positions count from the first letter of the chain named. Values joined by “and” are separate entries in the source; they are usually repeats but may differ in a detail not shown here. Equal values may be shown once.
# T1: recombinant human RNF43 extracellular domain (human, UniProt Q68DV7 24-197)
# T1 construct: extracellular domain; also called huRNF43; human RNF43 ECD
# T1 sequence (looked up): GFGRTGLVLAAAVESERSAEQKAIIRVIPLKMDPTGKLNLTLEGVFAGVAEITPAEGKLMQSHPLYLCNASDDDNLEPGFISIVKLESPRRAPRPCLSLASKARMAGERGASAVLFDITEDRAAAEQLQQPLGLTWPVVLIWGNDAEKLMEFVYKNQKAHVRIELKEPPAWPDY
# B1: RNF43-170 (antibody, V domains shown)
# VH: EVQLVESGGGLVPPGRSLKLSCVASGFTFNDYYMAWVRQAPTKGLEWVASISYEGRRTYYGDSVKGRFTISRDNAKSTLYLQMNSLRSDDTATYYCATHSNYIFDYWGQGVMVTVSS
# VL: DIRMTQSPASLSASLGETVNIECLASEDIYSDFAWFQQKPGQSPLLLIYNGNSLQNGVPSRFSGSGSGTQYSLKINSLQSEDVATYFCQQYNNYPPTFGGGTKLELK
# notes: Rat clone; VH/VL only
# B2: RNF43-179 (antibody, V domains shown)
# VH: B1 VH with P13Q, T42K, S52N, R56S, D89E, Y106N
# VL: B1 VL with S53N
# notes: Rat clone; VH/VL only
# B3: RNF43-145 (antibody, V domains shown)
# VH: EVQLKESGPGLVQPSQTLSLTCTVSGFSLTDYSVYWVRQPPGKGLEWMGVMWSGGTTAYNSALKSRLSISRDTSKSQVFLKMNSLQTEDTAIYYCTRGGKYDGTYYYGWYFDFWGPGTMVTVSS
# VL: DVVLTQSPATLSVTPGERISLSCRASESVDTYLYWYQQKPNESPRLLIKYASQSISGIPSRFSGSGSGTDFTLSINGVELEDLSIYYCQQGNSLPLTFGSGTKLEIK
# notes: Rat clone; VH/VL only
# B4: RNF43-224 (antibody, V domains shown)
# VH: B3 VH with T30S, Y35H, S76N, F79L, K81E
# VL: B3 VL with Y34S
# notes: Rat clone; VH/VL only
# B5: RNF43-156 (antibody, V domains shown)
# VH: B3 VH with S53R
# VL: B3 VL
# notes: Rat clone; VH/VL only
# B6: RNF43-53 (antibody, V domains shown)
# VH: EVQLVESGGGLVQPGRSLKLSCGASGFSFSTYYMVWVRQAPTKGLEWVASISPNGGNTYYPDSVKGRFTISRDNAKSTQYLQMDSLRSEDTATYYCATDGSYYYDGYRWLAYWGQGTLVTVSS
# VL: QFVLTQPNSVSTNLGSTVKLSCKRSTGNIGSNYVSWYQQHEGRSPTTLIYRDDKRPDGVPDRFSGSIDRSSNSALLTINNVQTEDEAGYFCQSFSSGLFIFGGGTKLTVL
# notes: Rat clone; VH/VL only
# B7: RNF43-129 (antibody, V domains shown)
# VH: EVQLVESGGGLVQPGRSMKLSCAASGFTFSNYDMAWVRQAPKKGLEWVASITYDVSSTYYRDSVKGRFTISRDNAKSTLYLQMDSLRSEDTATYYCTTLDRAGYYYDGYGFYWFANWGQGTLVTVSS
# VL: DIQMTQSPSSMSVSLGDTVTITCRASQDVKIYVNWFQQKPGKSPRQMIYRATNLADGVSSRFSGSRSGSDYLFTISSLESEDVADYHCLQYDEYPPTFGSGTKVEIK
# notes: Rat clone; VH/VL only
# B8: RNF43-196 (antibody, V domains shown)
# VH: QVQLQQSGAELVKPGSSVKISCKASGFTFTSNFMHWIKQQPGNGLEWIGWIYPGDGDTDYNQKFNGKATLTADKSSSTAYMELSSLTSEDSAVYFCARAYYGSYWYFDFWGPGTKVTVSS
# VL: DVQMTQSPHNLAASPGESVSINCKASKSISKYLAWYQQKPGKVKKLLIYGGSTLQSGIPSRFSGSGSGTDFTLTISSLEPEDFGLYYCQQHNEYPPTFGGGTRLELQ
# notes: Rat clone; VH/VL only
# B9: RNF43-221 (antibody, V domains shown)
# VH: EVQLVESGGGLVQPGRSLKLSCTASGFTLSDYAMAWVRQAPEKGLEWVATISYDGSRTYYGGSVKGRFTISRDNAENILYLQMDSLRSADTATYYCANSATPHYWGQGVMVTVSS
# VL: DVVMTQTPASLSLAIGQPASISCKSSQSLLDTSRKTFLNWILQRPGQSPKRLIYQVSKLYSEVPDRFSGSGSETEFTLKISRVEAEDLGVYYCWQGTHFPDTFGAGTKLELK
# notes: Rat clone; VH/VL only
# B10: RNF43-136 (antibody, V domains shown)
# VH: QVQLQQSGAELVKPGSSVKISCKASGYTFTSKFMHWIKQQPGSGLEWIGWIYPEHGNTKYNQKFDGKATLTADKSSSTAYMQLSSLTSGDSAVYFCARQSSQGAYAMDAWGQGTSVTVSS
# VL: DIQMTQSPVSLSASLGQTVSIECLTSEGIPIDLAWYQQKSGKSPQLLIYAASRSQDGVPSRFSGSGSGTRYSLKISGMQPEDEADYFCQQTYKYPFTFGSGTRLEIK
# notes: Rat clone; VH/VL only
# B11: RNF43-116 (antibody, V domains shown)
# VH: QVQLQQSGAELAKPGSSVKISCKASGYTFTSYYISWIKQTTGQDLEYIGYVNTRSGGTNYNEKFKVKATLTVDNSSSTAFMQLSSLTPDDSAVYYCARGRTDWGQGTLVTVSS
# VL: DIQMTQSPSLLSASVGDRVTVNCKASQNIYKNLEWYQQKHGEAPKLLIYYTNNLQTGISSRFSGSGSGTDYTLTISSLQPEDVATYYCFQYNSGYTFGAGTKLELK
# notes: Rat clone; VH/VL only
# B12: RNF43-180 (antibody, V domains shown)
# VH: EAQLVESGGGLVRPGRSLKLTCAASGFTFSHYDMAWVRQAPARGLEWVASIGPGGGLTHYRDSVKGRFTVSRDHAESSLYLQMDSLRSEDTATYYCARHYGWSYFDYWGQGVMVTVSS
# VL: DIQMTQSPSFLSASLGDSITITCHASQNIKGWLAWYQQKSGNAPELLIYTASGLRSGVPSRFSGSGSGTDYILTISNLQPEDFATYYCQHYQSFPNTFGAGTKLELR
# notes: Rat clone; VH/VL only
# B13: RNF43-130 (antibody, V domains shown)
# VH: QVQLVQSGAEVVKPGSSVKISCKASGYTFTGNFIHWIKQQPGNGLEWIGWIYPGDGDTTYNQKFSGKATLTADKSSSTAYMQLSNLTSEDSAVYFCAKWRDLSSDWFAYWGQGTLVTVSS
# VL: DIVMTQSPVSLTVSEGEMVTINCKSSQSLLSSGNQKNYLAWYQQKPGQSPRLLIYFTSTRQSGVPDRFIGSGSGTDFTLTISDVQAEDLADYYCLQHYSYPNTFGAGTKLELK
# notes: Rat clone; VH/VL only
# B14: RNF43-104 (antibody, V domains shown)
# VH: QVQLKESGPGLVQPSQTLSLTCSVSGFSLTSFHVHWVRQPPGKGLEWMGLMWSNGDTSYNSDLKSRLSISRDTSKSQVFLKMHSLQTEDTATYYCARTDVYHGFGAMDAWGQGTSVTVSS
# VL: DIQMTQSPSFLSASLGNSITITCHASQFIKGWLAWYQQKSGNAPELLIYKSSSLHSGVPSRFSGSGSGTDYILTISNLQPEDIATYYCQHYQGFPLTFGSGTKLEIK
# notes: Rat clone; VH/VL only
# B15: RNF43-181 (antibody, V domains shown)
# VH: QIQLQQSGAELVKPGSSVKISCKSSAYRFTSNFIHWIRQQPGNGLEWIGWIYPGDGDAENNQKFNGKVILTADKSSSTAYMQLSSLTSEDSAVYFCARGVMTSLWYFDFWGPGTMVTVSS
# VL: DVQMTQSPYNLAASPGESVSINCKASKSISKYLAWYQQKPGKTNKLLIYDGSTLQSGIPSRFSGSGSGTDFTLTIRSLEPEDFGLYYCQQHHEQPPTFGSGTKLEIK
# notes: Rat clone; VH/VL only
# B16: RNF43-126 (antibody, V domains shown)
# VH: EVQLQESGPGLVKPSQSLSLTCSVTGFSITSSHRWNWIRKFPGNKLEWMGYINSAGSTNYNPSLKSRISITRDTSKNQFFLQVNSVTTEDTATYYCTRLGLQYRDFDYWGQGVMVTVSS
# VL: DIQMTQSPASLSASLGETISIECRASDDIYSNLAWYQQKSGKSPQLLIYAANRLKDGVPSRFSGSGSGTQYSLKISGMQTEDEGDYFCLQASKFPLTFGSGTKLEIK
# notes: Rat clone; VH/VL only
# B17: RNF43-217 (antibody, V domains shown)
# VH: B16 VH with I68V, T74A
# VL: B16 VL with Q79E
# notes: Rat clone; VH/VL only
# B18: RNF43-38 (antibody, V domains shown)
# VH: EVQLVESGGGLVQPGTSLKISCVASGFTFSDYWMSWVRQTPGKTMEWIGDIKSDGSYTNYAPSLKNRFTISRDNAKSTLYLQMNNVRSEDTATYYCTRDAYRYNYVHYGLDAWGQGASVTVSS
# VL: QFVLTQPNSVSANLGSTVKLSCNRSTGNIGSNYVSWYQQHEGRSPTTMLYRDGKRPDGIPDRFSGSIDGSSNSALLTINNVQTEDEADYFCQSYSSGIKYIFGGGTKLTVL
# notes: Rat clone; VH/VL only
# B19: RNF43-56 (antibody, V domains shown)
# VH: B18 VH with K43R, S53Y, T78I, R102G
# VL: B18 VL with A12S, L49I, G53D, G97D
# notes: Rat clone; VH/VL only
# B20: RNF43-176 (antibody, V domains shown)
# VH: QVQLKESGPGLVQPSQTLSLTCTVSGFSLTSYHVSWVRQPPGKGLEWMGVIWTGGSTAYNSLLKSRLSISRDISKSQVFLKMNSLQTEDTATYYCASQYYGYTSYFDYWGQGVMVTVSS
# VL: DIQMTQSPVSLSASPEEIVTITCQASQDIDNWLTWYQQKPGKSPQLLIYSATSLADGIPSRFSGSRSGTQYSLKISRLQIEDTGIYYCLQRYGNPWTFGGGTKLELK
# notes: Rat clone; VH/VL only
# B21: RNF43-206 (antibody, V domains shown)
# VH: B20 VH with Y32F, V34I, V50I, S97G, Q98S, Y100H
# VL: B20 VL with V9A, T34A, K39Q, S76N, I80V, G93S
# notes: Rat clone; VH/VL only
# B22: RNF43-168 (antibody, V domains shown)
# VH: B20 VH with T30N, S31R, I51V, N83I, A96V
# VL: B20 VL with V9A, I21V, S76D, I80V
# notes: Rat clone; VH/VL only
# B23: RNF43-200 (antibody, V domains shown)
# VH: B20 VH with V34I, T87A, S97G, Q98S
# VL: B20 VL with V9A, T34A, S53R, T69I, S76N, I80V, Y92F
# notes: Rat clone; VH/VL only
# B24: RNF43-177 (antibody, V domains shown)
# VH: QVKLLQSGAALVKPGDSAKMSCKASGYTFTDSIIHWVKQSHGKSLEWIGYINPYSGGIQYNEKFKNKATLTVDKSSSTAYVEFSRLTSEDSAIYYCAREIRGMDAWGQGTSVTVSS
# VL: DIVLTQSPATLSVTPGESVSLSCRASQGISTSLHWYQQKSTESPRLLIKYASQSVSGIPSRFSGSGSGTDFTLSINRVESEDFSVYYCQQSYNLPRTFGPGTKLELK
# notes: Rat clone; VH/VL only
# Molecular target: T1, recombinant human RNF43 extracellular …
# Assay: SPR Biacore 8K; antibody captured on Protein A; RNF43 ECD analyte; 25 C
# Protocol: Antibodies were screened for binding to recombinant human RNF43 and ZNRF3 ECDs using a Biacore® 8 k instrument (GE Life Sciences). Briefly, antibodies diluted to 1 μg/ml in 1×HBSP buffer (Cytiva, BR100368) were captured on a Sensor Chip Protein A (GE Life Sciences) using a flow rate of 10 μl/minute and a contact time of 60 seconds. Binding of recombinant human RNF43 and ZNRF3 extracellular domain to the captured antibodies was analyzed at 25° C. using a single cycle kinetics method with a flow rate of 30 μl/minute, a contact time of 180 seconds and a dissociation time of 600 seconds. The concentration of recombinant human RNF43 and ZNRF3 extracellular domain in the single cycle kinetics were 0, 0.8, 4, 20, and 100 nM. Between cycles, the chip was regenerated using 10 mM Glycine HCl pH 1.5 injected for 30 seconds at 30 μl/minute. Data were evaluated using Biacore 8K Evaluation software (GE Life Sciences). Kinetic constants were obtained using a 1:1 binding model with the parameter RI set to zero. Cell surface ligase antibodies with sub-nanomolar affinities may provide advantages in certain instances, for example, in the degradation efficiency which is correlated with the durability of the ternary complex as shown in FIG. 5D.
row,Binder,Kd
1,B1,76 nM
2,B2,31.7 nM
3,B3,0.504 nM
4,B4,0.584 nM
5,B5,0.209 nM
6,B6,3.3 nM
7,B7,1.17 nM
8,B8,0.114 nM
9,B9,51.6 nM
10,B10,1.91 nM
11,B11,1.42 nM
12,B12,2.81 nM
13,B13,0.134 nM
14,B14,9.12 nM
15,B15,0.0859 nM
16,B16,1.75 nM
17,B17,1.49 nM
18,B18,4.93 nM and 8.66 nM
19,B19,1.84 nM
20,B20,5.71 nM
21,B21,0.58 nM
22,B22,1.36 nM
23,B23,0.539 nM
24,B24,6.47 nM
